Laboratory results published in patent US20230416329A1 (INSTITUTE OF MATERIA MEDICA CHINESE ACADEMY OF MEDICAL …, published 2023).
Bridge positions count the residues as written; N and C are the ends. Ends that are not written are not given here.

These binders were tested against bovine trypsin (bovine, UniProt P00760 24-246) (assay: trypsin inhibition, BApNA substrate).
Procedure: The substrates N-succinyl-Ala-Ala-Pro-Phe-p-nitroaniline (AAPFpNA), Nα—Benzoyl-L-arginine-4-nitroaniline hydrochloride (BApNA) and N-succinyl-[…] (AAApNA) are used in competitive binding reaction to determine the inhibitory activities against α-chymotrypsin, bovine trypsin, and porcine pancreatic elastase, respectively. Experiments for α-chymotrypsin and bovine trypsin inhibition were measured in 20 mM CaCl₂, 50 mM Tris-HCl buffer (pH 7.8), and that for porcine elastase inhibition was measured in 50 mM Tris-HCl buffer (pH 8.0). The concentration of the peptide was measured using optical density (OD) at 280 nm. The Michaelis constant (Kₘ) of the enzyme hydrolysis substrate is calculated from the initial rate of substrate hydrolysis at 405 nm. The absorbance value of the substrate was measured at 405 nm after complete hydrolysis. All data were processed using nonlinear regression.
(1) Added a total 190 μL of reaction buffer (20 mM CaCl₂ and 50 mM Tris-HCl, pH 7.8) along with different concentrations of anti-trypsin peptides (BTs) into the pre-cooled 96-well plate, followed by preheating at 37° C., and spined down at 500 rpm for 5 min. Next added 10 μL of 1 μM trypsin, incubated at 37° C., and then spined down at 500 rpm for 10 min. Finally, added 5 μL of 50 mM BApNA, and mixed by centrifugation at 500 rpm for 1 min. […] The experiment was performed in triplicate. The blank control only contained the reaction buffer and the substrate as the minimum absorption value (Min OD_{405 nm}). The negative control only contained the reaction buffer, the enzyme and the substrate as the maximum absorption value (Max OD_{405 nm}). […] (2) In the reaction system of 205 μL, the final concentrations of trypsin and BApNA were 50 nM and 1.22 mM, respectively. [0456] (3) Data statistics

bovine trypsin, sequence (P00760 24-246): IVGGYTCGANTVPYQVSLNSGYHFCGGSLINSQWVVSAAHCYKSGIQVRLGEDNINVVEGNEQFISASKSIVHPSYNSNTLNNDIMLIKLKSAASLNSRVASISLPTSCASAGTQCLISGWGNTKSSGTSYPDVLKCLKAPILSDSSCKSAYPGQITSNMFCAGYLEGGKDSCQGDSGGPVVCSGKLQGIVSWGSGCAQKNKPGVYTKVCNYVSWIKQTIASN

Binder	IC50	Ki	fold decrease in inhibitory activity compared to BT9
CGRATKSIPPICFPD (disulfide 1-12 (inferred)) [BT5]	160 nM	30 nM	
CGSATKSIPPICFPD (disulfide 1-12 (inferred)) [BT6]	290 nM	60 nM	
CGAATKSIPPICFPD (disulfide 1-12 (inferred)) [BT7]	230 nM	50 nM	
CGRATKSIPPICF (disulfide 1-12 (inferred)) [BT9]	70 nM	10 nM	
CGRATKSIPAICF (disulfide 1-12 (inferred)) [BT10]	110 nM	20 nM	
CGRATRSIPPACF (disulfide 1-12 (inferred)) [BT15]	4490 nM	960 nM	
CGRATKSLPAICF (disulfide 1-12 (inferred)) [BT16]	910 nM	190 nM	
CGRATRSIPPICF (disulfide 1-12 (inferred)) [BT17]	580 nM	120 nM	~12 fold
CGRATRSIPPICY (disulfide 1-12 (inferred)) [BT18]	39400 nM	8380 nM	
CGRATRSIPPICA (disulfide 1-12 (inferred)) [BT19]	43400 nM	9250 nM	
CGRATRSAPPICF (disulfide 1-12 (inferred)) [BT21]	18100 nM	3850 nM	
CGRATRAIPPICF (disulfide 1-12 (inferred)) [BT22]	4680 nM	1000 nM	
CGTATKSIPPICN (disulfide 1-12 (inferred)) [BT24]	33900 nM	7220 nM	
CGTATKSIPPICF (disulfide 1-12 (inferred)) [BT25]	970 nM	210 nM	
CGRAAKSIPPICF (disulfide 1-12 (inferred)) [BT26]	2500 nM	530 nM	
CGRATKAIPPICF (disulfide 1-12 (inferred)) [BT27]	280 nM	60 nM	
CGRSTKSIPPICF (disulfide 1-12 (inferred)) [BT47]	50 nM	10 nM	
CGRLTKSIPPICF (disulfide 1-12 (inferred)) [BT48]	180 nM	40 nM	
CGRITKSIPPICF (disulfide 1-12 (inferred)) [BT49]	500 nM	110 nM	

Binder	IC50	Ki	fold decrease in inhibitory activity compared to BT9
CGRVTKSIPPICF (disulfide 1-12 (inferred)) [BT51]	410 nM	90 nM	
CGRFTKSIPPICF (disulfide 1-12 (inferred)) [BT52]	130 nM	30 nM	
CGRYTKSIPPICF (disulfide 1-12 (inferred)) [BT53]	120 nM	30 nM	
CGRQTKSIPPICF (disulfide 1-12 (inferred)) [BT54]	60 nM	10 nM	
CGRNTKSIPPICF (disulfide 1-12 (inferred)) [BT55]	300 nM	60 nM	
CGRHTKSIPPICF (disulfide 1-12 (inferred)) [BT56]	110 nM	20 nM	
CGRWTKSIPPICF (disulfide 1-12 (inferred)) [BT57]	130 nM	30 nM	
CGRETKSIPPICF (disulfide 1-12 (inferred)) [BT58]	120 nM	30 nM	
CGRPTKSIPPICF (disulfide 1-12 (inferred)) [BT59]	26300 nM	5590 nM	
CGRGTKSIPPICF (disulfide 1-12 (inferred)) [BT60]	430 nM	90 nM	
CPRATKSIPPICF (disulfide 1-12 (inferred)) [BT66]	60 nM	10 nM	
CARATKSIPPICF (disulfide 1-12 (inferred)) [BT67]	50 nM	10 nM	
CVRATKSIPPICF (disulfide 1-12 (inferred)) [BT71]	110 nM	20 nM	
CLRATKSIPPICF (disulfide 1-12 (inferred)) [BT72]	130 nM	30 nM	
CIRATKSIPPICF (disulfide 1-12 (inferred)) [BT73]	120 nM	30 nM	
CSRATKSIPPICF (disulfide 1-12 (inferred)) [BT75]	40 nM	8.5 nM	
CRRATKSIPPICF (disulfide 1-12 (inferred)) [BT76]	50 nM	10 nM	
CKRATKSIPPICF (disulfide 1-12 (inferred)) [BT77]	40 nM	8.5 nM	
